The record followed here is patent US20160311883A1 (Eli Lilly, published 2016).

Square brackets hold non-standard residues; d marks the D form. Ends that are not written are not given here. Aib = CC(C)(N)C(=O)O

The assay deals with human glucagon receptor (hGR) (human, UniProt P47871 26-477). The assay is described as follows: cell-based or functional assay.
Chain of human glucagon receptor (hGR) (P47871 26-477): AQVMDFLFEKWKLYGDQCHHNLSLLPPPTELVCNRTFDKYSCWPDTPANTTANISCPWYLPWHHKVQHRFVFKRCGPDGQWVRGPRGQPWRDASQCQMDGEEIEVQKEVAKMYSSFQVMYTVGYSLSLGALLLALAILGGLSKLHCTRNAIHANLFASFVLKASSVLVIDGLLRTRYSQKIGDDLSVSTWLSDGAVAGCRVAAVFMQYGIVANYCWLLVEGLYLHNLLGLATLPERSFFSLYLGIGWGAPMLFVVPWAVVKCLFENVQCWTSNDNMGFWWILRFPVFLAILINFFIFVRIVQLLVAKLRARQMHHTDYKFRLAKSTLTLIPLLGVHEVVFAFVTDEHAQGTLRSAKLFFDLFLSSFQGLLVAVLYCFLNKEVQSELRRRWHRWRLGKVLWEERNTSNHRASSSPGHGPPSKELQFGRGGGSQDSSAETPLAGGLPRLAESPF

B1: compound of SEQ ID NO: 2 (peptide)
peptide: YSHGTFTSDVSKYLD[Aib]KKAAEFVAWLLEE-OH
modifications: N-terminus assumed
SMILES: CC(C)C[C@H](NC(=O)[C@H](Cc1c[nH]c2ccccc12)NC(=O)[C@H](C)NC(=O)[C@@H](NC(=O)[C@H](Cc1ccccc1)NC(=O)[C@H](CCC(=O)O)NC(=O)[C@H](C)NC(=O)[C@H](C)NC(=O)[C@H](CCCCN)NC(=O)[C@H](CCCCN)NC(=O)C(C)(C)NC(=O)[C@H](CC(=O)O)NC(=O)[C@H](CC(C)C)NC(=O)[C@H](Cc1ccc(O)cc1)NC(=O)[C@H](CCCCN)NC(=O)[C@H](CO)NC(=O)[C@@H](NC(=O)[C@H](CC(=O)O)NC(=O)[C@H](CO)NC(=O)[C@@H](NC(=O)[C@H](Cc1ccccc1)NC(=O)[C@@H](NC(=O)CNC(=O)[C@H](Cc1c[nH]cn1)NC(=O)[C@H](CO)NC(=O)[C@@H](N)Cc1ccc(O)cc1)[C@@H](C)O)[C@@H](C)O)C(C)C)C(C)C)C(=O)N[C@@H](CC(C)C)C(=O)N[C@@H](CCC(=O)O)C(=O)N[C@@H](CCC(=O)O)C(=O)O
In the case of B1, the “hGR stimulated cAMP functional assay, relative EC50” value is 0.0658 ηM.
